These results are taken from US20220025021A1 (BETH ISRAEL DEACONESS MEDICAL CENTER, published 2022).

Holding throughout (assay): cell-based or functional assay
Assay [1] has as its target HIV-1 pseudovirus 6952.v1.c20 (envelope glycoprotein) (HIV-1).
For assay [2], the target named is HIV-1 pseudovirus 263-8 (envelope glycoprotein) (HIV-1).
Assay [3] concerns the target HIV-1 pseudovirus AC10.0.29 (envelope glycoprotein) (HIV-1).
Assay [4] deals with HIV-1 pseudovirus SC05.8C11.2344 (envelope glycoprotein) (HIV-1).
Assay [5] addresses HIV-1 pseudovirus X1193_c1 (envelope glycoprotein) (HIV-1).
For assay [6], the target named is HIV-1 pseudovirus Ce1176_A3 (envelope glycoprotein) (HIV-1).

Residue numbers refer to the chain shown, from its start.

B1: MS-113 (antibody)
VH: not shown
VL: DIVLTQSPLSLSVTPGEPASISCKSSHSLIHGDRNNYLAWYVQKPGRSPQLLIYLASSRASGVPDRFSGSGSGKDFTLKISRVETEDVGTYYCMQGRESPWTFGQGTKVDIKRTVAAPSVFIFPPSDEQLKSGTASVVCLLNNFYPREAKVQWKVDNALQSGNSQESVTEQDSKDSTYSLSSTLTLSKADYEKHKVYACEVTHQGLSSPVTKSFNRGEC
In the case of B1, the “neutralization IC50” value in assay [1] came out at 0.351 µg/mL; in assay [2], 0.018 µg/mL; in assay [3] it was 0.052 µg/mL; in assay [4] it was 0.573 µg/mL; in assay [5], 0.098 µg/mL; in assay [6], 0.182 µg/mL. The “neutralization IC80” value in assay [1] worked out at 5.03 µg/mL; in assay [2], 0.052 µg/mL; in assay [3], 0.245 µg/mL; in assay [4], 1.94 µg/mL; in assay [5], 0.421 µg/mL; in assay [6], 6.05 µg/mL.

B2: MS-116 (antibody)
VH: not shown
VL: B1 VL with L9H, T85A
Regarding B2, the “neutralization IC50” value is 0.341 µg/mL in assay [1]; 0.011 µg/mL in assay [2]; 0.052 µg/mL in assay [3]; 0.456 µg/mL in assay [4]; 0.064 µg/mL in assay [5]; 0.145 µg/mL in assay [6]. The “neutralization IC80” value in assay [1] turned out to be 7.51 µg/mL; in assay [2], 0.042 µg/mL; in assay [3], 0.258 µg/mL; in assay [4], 1.62 µg/mL; in assay [5], 0.222 µg/mL; in assay [6], 3.12 µg/mL.

B3: MS-114 (antibody)
VH: not shown
VL: B1 VL with G73D, T85A
B3: the “neutralization IC50” value in assay [1] was determined as 0.146 µg/mL; in assay [2], 0.018 µg/mL; in assay [3] it was 0.066 µg/mL; in assay [4], 0.81 µg/mL; in assay [5], 0.124 µg/mL; in assay [6], 0.139 µg/mL. The “neutralization IC80” value in assay [1] was 1.37 µg/mL; in assay [2], 0.066 µg/mL; in assay [3] it was 0.313 µg/mL; in assay [4], 3.86 µg/mL; in assay [5], 0.404 µg/mL; in assay [6], 7.39 µg/mL.

B4: MS-115 (antibody)
VH: not shown
VL: B1 VL with P18S, T85A
As for B4, the “neutralization IC50” value in assay [1] was 0.303 µg/mL; in assay [2], 0.013 µg/mL; in assay [3] it was 0.049 µg/mL; in assay [4], 0.436 µg/mL; in assay [5], 0.08 µg/mL; in assay [6], 0.18 µg/mL. Further, the “neutralization IC80” value in assay [1] amounted to 4.7 µg/mL; in assay [2], 0.037 µg/mL; in assay [3] it was 0.249 µg/mL; in assay [4] it was 1.51 µg/mL; in assay [5], 0.274 µg/mL; in assay [6], 6.3 µg/mL.

B5: MS-117 (antibody)
VH: not shown
VL: B1 VL with I2F, T85A
For B5, the “neutralization IC50” value in assay [1] turned out to be 0.208 µg/mL; in assay [2], 0.01 µg/mL; in assay [3] it was 0.051 µg/mL; in assay [4], 0.432 µg/mL; in assay [5], 0.064 µg/mL; in assay [6], 0.113 µg/mL. For the same molecule, the “neutralization IC80” value in assay [1] is 3.84 µg/mL; in assay [2], 0.029 µg/mL; in assay [3], 0.252 µg/mL; in assay [4] it was 1.48 µg/mL; in assay [5], 0.226 µg/mL; in assay [6], 2.17 µg/mL.

B6: MS-118 (antibody)
VH: not shown
VL: B1 VL with T85A
In the case of B6, the “neutralization IC50” value in assay [1] stood at 0.392 µg/mL; in assay [2], 0.011 µg/mL; in assay [3], 0.056 µg/mL; in assay [4], 0.449 µg/mL; in assay [5] it was 0.085 µg/mL; in assay [6], 0.26 µg/mL. Besides, the “neutralization IC80” value is 12.2 µg/mL in assay [1]; 0.039 µg/mL in assay [2]; 0.273 µg/mL in assay [3]; 1.54 µg/mL in assay [4]; 0.287 µg/mL in assay [5]; 8.12 µg/mL in assay [6].
